The supplement of paper PMC11908140

B1: library; numbered along this chain (parent)
chain: MRKPRAAVGSGHRKQAASQEGRQKHAKNNSQAKPSACDGLARQPEEVVLQASVSSYHLFRDVAEVTAFRGSLLSWYDQEKRDLPWRRRAEDEMDLDRRAYAVWVSEVMLQQTQVATVINYYTGWMQKWPTLQDLASASLEEVNQLWAGLGYYSRGRRLQEGARKVVEELGGHMPRTAETLQQLLPGVGRYTAGAIASIAFGQATGVVDGNVARVLCRVRAIGADPSSTLVSQQLWGLAQQLVDPARPGDFNQAAMELGATVCTPQRPLCSQCPVESLCRARQRVEQEQLLASGSLSGSPDVEECAPNTGQCHLCLPPSEPWDQTLGVVNFPRKASRKPPREESSATCVLEQPGALGAQILLVQRPNSGLLAGLWEFPSVTWEPSEQLQRKALLQELQRWAGPLPATHLRHLGEVVHTFSHIKLTYQVYGLALEGQTPVTTVPPGARWLTQEEFHTAAVSTAMKKVFRVYQGQQPGTCMGSKRSQVSSPCSRKKPRMGQQVLDNFFRSHISTDAHSLNSAAQ

Variants of: B1
Assay: 8OG:A repair function score (normalized; synonymous = 0, nonsense = -1) (normalized log-likelihood score); higher = more repair activity (WT-like)
Conditions: with 8OG:A DNA repair reporter (GFP) in HEK-293 MUTYH KO cells
How it was run: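 With 10 pg/ml doxycycline, MUTYH knockout HEK-293 cells carrying lentiviral MUTYH cDNA NNN codon-scan libraries were co-transfected with mCherry and an 8OG:A GFP repair reporter. Viable mCherry+ cells were sorted into GFP+ (repair) and GFP− bins at 72 h, three replicates per tile, and tile amplicons were sequenced. Per-tile Rosace fitness scores were then normalized into a repair function score anchored on synonymous and nonsense distributions. Medians were fixed at 0 for synonymous and -1 for nonsense, excluding variants under 300 counts per million at the start.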

Row | Variant | 8OG:A repair function score
1 | MRKPRAAVGSGHRKQAASQEGRQKHAKNNSQAKPSACDGLARQPEEVVLQASVSSYHLFRDVAEVTAFRGSLLSWYDQEKRDLPWRRRAEDEMDLDRRAYAVWVSEVMLQQTQVATVINYYTGWMQKWPTLQDLASASLEEVNQLWAGLGYYSRGRRLQEGARKVVEELGGHMPRTAETLQQLLPGVGRYTAGAIASIAFGQATGVVDGNVARVLCRVRAIGADPSSTLVSQQLWGLAQQLVDPARPGDFNQAAMELGATVCTPQRPLCSQCPVESLCRARQRVEQEQLLASGSLSGSPDVEECAPNTGQCHLCLPPSEPWDQTLGVVNFPRKASRKPPREESSATCVLEQPGALGAQILLVQRPNSGLLAGLWEFPSVTWEPSEQLQRKALLQELQRWAGPLPATHLRHLGEVVHTFSHIKLTYQVYGLALEGQTPVTTVPPGARKLTQEEFHTAAVSTAMKKVFRVYQGQQPGTCMGSKRSQVSSPCSRKKPRMGQQVLDNFFRSHISTDAHSLNSAAQ [W447K] | -0.937
2 | MRKPRAAVGSGHRKQAASQEGRQKHAKNNSQAKPSACDGLARQPEEVVLQASVSSYHLFRDVAEVTAFRGSLLSWYDQEKRDLPWRRRAEDEMDLDRRAYAVWVSEVMLQQTQVATVINYYTGWMQKWPTLQDLASASLEEVNQLWAGLGYYSRGRRLQEGARKVVEELGGHMPRTAETLQQLLPGVGRYTAGAIASIAFGQATGVVDGNVARVLCRVRAIGADPSSTLVSQQLWGLAQQLVDPARPGDFNQAAMELGATVCTPQRPLCSQCPVESLCRARQRVEQEQLLASGSLSGSPDVEECAPNTGQCHLCLPPSEPWDQTLGVVNFPRKASRKPPREESSATCVLEQPGALGAQILLVQRPNSGLLAGLWEFPSVTWEPSEQLQRKALLQELQRWAGPLPATHLRHLGEVVHTFSHIKLTYQVYGLALEGQTPVTTVPPGARMLTQEEFHTAAVSTAMKKVFRVYQGQQPGTCMGSKRSQVSSPCSRKKPRMGQQVLDNFFRSHISTDAHSLNSAAQ [W447M] | -0.801
3 | MRKPRAAVGSGHRKQAASQEGRQKHAKNNSQAKPSACDGLARQPEEVVLQASVSSYHLFRDVAEVTAFRGSLLSWYDQEKRDLPWRRRAEDEMDLDRRAYAVWVSEVMLQQTQVATVINYYTGWMQKWPTLQDLASASLEEVNQLWAGLGYYSRGRRLQEGARKVVEELGGHMPRTAETLQQLLPGVGRYTAGAIASIAFGQATGVVDGNVARVLCRVRAIGADPSSTLVSQQLWGLAQQLVDPARPGDFNQAAMELGATVCTPQRPLCSQCPVESLCRARQRVEQEQLLASGSLSGSPDVEECAPNTGQCHLCLPPSEPWDQTLGVVNFPRKASRKPPREESSATCVLEQPGALGAQILLVQRPNSGLLAGLWEFPSVTWEPSEQLQRKALLQELQRWAGPLPATHLRHLGEVVHTFSHIKLTYQVYGLALEGQTPVTTVPPGARRLTQEEFHTAAVSTAMKKVFRVYQGQQPGTCMGSKRSQVSSPCSRKKPRMGQQVLDNFFRSHISTDAHSLNSAAQ [W447R] | -0.794
4 | MRKPRAAVGSGHRKQAASQEGRQKHAKNNSQAKPSACDGLARQPEEVVLQASVSSYHLFRDVAEVTAFRGSLLSWYDQEKRDLPWRRRAEDEMDLDRRAYAVWVSEVMLQQTQVATVINYYTGWMQKWPTLQDLASASLEEVNQLWAGLGYYSRGRRLQEGARKVVEELGGHMPRTAETLQQLLPGVGRYTAGAIASIAFGQATGVVDGNVARVLCRVRAIGADPSSTLVSQQLWGLAQQLVDPARPGDFNQAAMELGATVCTPQRPLCSQCPVESLCRARQRVEQEQLLASGSLSGSPDVEECAPNTGQCHLCLPPSEPWDQTLGVVNFPRKASRKPPREESSATCVLEQPGALGAQILLVQRPNSGLLAGLWEFPSVTWEPSEQLQRKALLQELQRWAGPLPATHLRHLGEVVHTFSHIKLTYQVYGLALEGQTPVTTVPPGARFLTQEEFHTAAVSTAMKKVFRVYQGQQPGTCMGSKRSQVSSPCSRKKPRMGQQVLDNFFRSHISTDAHSLNSAAQ [W447F] | -0.355
5 | MRKPRAAVGSGHRKQAASQEGRQKHAKNNSQAKPSACDGLARQPEEVVLQASVSSYHLFRDVAEVTAFRGSLLSWYDQEKRDLPWRRRAEDEMDLDRRAYAVWVSEVMLQQTQVATVINYYTGWMQKWPTLQDLASASLEEVNQLWAGLGYYSRGRRLQEGARKVVEELGGHMPRTAETLQQLLPGVGRYTAGAIASIAFGQATGVVDGNVARVLCRVRAIGADPSSTLVSQQLWGLAQQLVDPARPGDFNQAAMELGATVCTPQRPLCSQCPVESLCRARQRVEQEQLLASGSLSGSPDVEECAPNTGQCHLCLPPSEPWDQTLGVVNFPRKASRKPPREESSATCVLEQPGALGAQILLVQRPNSGLLAGLWEFPSVTWEPSEQLQRKALLQELQRWAGPLPATHLRHLGEVVHTFSHIKLTYQVYGLALEGQTPVTTVPPGARHLTQEEFHTAAVSTAMKKVFRVYQGQQPGTCMGSKRSQVSSPCSRKKPRMGQQVLDNFFRSHISTDAHSLNSAAQ [W447H] | -0.881
6 | MRKPRAAVGSGHRKQAASQEGRQKHAKNNSQAKPSACDGLARQPEEVVLQASVSSYHLFRDVAEVTAFRGSLLSWYDQEKRDLPWRRRAEDEMDLDRRAYAVWVSEVMLQQTQVATVINYYTGWMQKWPTLQDLASASLEEVNQLWAGLGYYSRGRRLQEGARKVVEELGGHMPRTAETLQQLLPGVGRYTAGAIASIAFGQATGVVDGNVARVLCRVRAIGADPSSTLVSQQLWGLAQQLVDPARPGDFNQAAMELGATVCTPQRPLCSQCPVESLCRARQRVEQEQLLASGSLSGSPDVEECAPNTGQCHLCLPPSEPWDQTLGVVNFPRKASRKPPREESSATCVLEQPGALGAQILLVQRPNSGLLAGLWEFPSVTWEPSEQLQRKALLQELQRWAGPLPATHLRHLGEVVHTFSHIKLTYQVYGLALEGQTPVTTVPPGARPLTQEEFHTAAVSTAMKKVFRVYQGQQPGTCMGSKRSQVSSPCSRKKPRMGQQVLDNFFRSHISTDAHSLNSAAQ [W447P] | -0.941
7 | MRKPRAAVGSGHRKQAASQEGRQKHAKNNSQAKPSACDGLARQPEEVVLQASVSSYHLFRDVAEVTAFRGSLLSWYDQEKRDLPWRRRAEDEMDLDRRAYAVWVSEVMLQQTQVATVINYYTGWMQKWPTLQDLASASLEEVNQLWAGLGYYSRGRRLQEGARKVVEELGGHMPRTAETLQQLLPGVGRYTAGAIASIAFGQATGVVDGNVARVLCRVRAIGADPSSTLVSQQLWGLAQQLVDPARPGDFNQAAMELGATVCTPQRPLCSQCPVESLCRARQRVEQEQLLASGSLSGSPDVEECAPNTGQCHLCLPPSEPWDQTLGVVNFPRKASRKPPREESSATCVLEQPGALGAQILLVQRPNSGLLAGLWEFPSVTWEPSEQLQRKALLQELQRWAGPLPATHLRHLGEVVHTFSHIKLTYQVYGLALEGQTPVTTVPPGARQLTQEEFHTAAVSTAMKKVFRVYQGQQPGTCMGSKRSQVSSPCSRKKPRMGQQVLDNFFRSHISTDAHSLNSAAQ [W447Q] | -1.16
8 | MRKPRAAVGSGHRKQAASQEGRQKHAKNNSQAKPSACDGLARQPEEVVLQASVSSYHLFRDVAEVTAFRGSLLSWYDQEKRDLPWRRRAEDEMDLDRRAYAVWVSEVMLQQTQVATVINYYTGWMQKWPTLQDLASASLEEVNQLWAGLGYYSRGRRLQEGARKVVEELGGHMPRTAETLQQLLPGVGRYTAGAIASIAFGQATGVVDGNVARVLCRVRAIGADPSSTLVSQQLWGLAQQLVDPARPGDFNQAAMELGATVCTPQRPLCSQCPVESLCRARQRVEQEQLLASGSLSGSPDVEECAPNTGQCHLCLPPSEPWDQTLGVVNFPRKASRKPPREESSATCVLEQPGALGAQILLVQRPNSGLLAGLWEFPSVTWEPSEQLQRKALLQELQRWAGPLPATHLRHLGEVVHTFSHIKLTYQVYGLALEGQTPVTTVPPGARNLTQEEFHTAAVSTAMKKVFRVYQGQQPGTCMGSKRSQVSSPCSRKKPRMGQQVLDNFFRSHISTDAHSLNSAAQ [W447N] | -0.921
9 | MRKPRAAVGSGHRKQAASQEGRQKHAKNNSQAKPSACDGLARQPEEVVLQASVSSYHLFRDVAEVTAFRGSLLSWYDQEKRDLPWRRRAEDEMDLDRRAYAVWVSEVMLQQTQVATVINYYTGWMQKWPTLQDLASASLEEVNQLWAGLGYYSRGRRLQEGARKVVEELGGHMPRTAETLQQLLPGVGRYTAGAIASIAFGQATGVVDGNVARVLCRVRAIGADPSSTLVSQQLWGLAQQLVDPARPGDFNQAAMELGATVCTPQRPLCSQCPVESLCRARQRVEQEQLLASGSLSGSPDVEECAPNTGQCHLCLPPSEPWDQTLGVVNFPRKASRKPPREESSATCVLEQPGALGAQILLVQRPNSGLLAGLWEFPSVTWEPSEQLQRKALLQELQRWAGPLPATHLRHLGEVVHTFSHIKLTYQVYGLALEGQTPVTTVPPGARILTQEEFHTAAVSTAMKKVFRVYQGQQPGTCMGSKRSQVSSPCSRKKPRMGQQVLDNFFRSHISTDAHSLNSAAQ [W447I] | -0.784
10 | MRKPRAAVGSGHRKQAASQEGRQKHAKNNSQAKPSACDGLARQPEEVVLQASVSSYHLFRDVAEVTAFRGSLLSWYDQEKRDLPWRRRAEDEMDLDRRAYAVWVSEVMLQQTQVATVINYYTGWMQKWPTLQDLASASLEEVNQLWAGLGYYSRGRRLQEGARKVVEELGGHMPRTAETLQQLLPGVGRYTAGAIASIAFGQATGVVDGNVARVLCRVRAIGADPSSTLVSQQLWGLAQQLVDPARPGDFNQAAMELGATVCTPQRPLCSQCPVESLCRARQRVEQEQLLASGSLSGSPDVEECAPNTGQCHLCLPPSEPWDQTLGVVNFPRKASRKPPREESSATCVLEQPGALGAQILLVQRPNSGLLAGLWEFPSVTWEPSEQLQRKALLQELQRWAGPLPATHLRHLGEVVHTFSHIKLTYQVYGLALEGQTPVTTVPPGARGLTQEEFHTAAVSTAMKKVFRVYQGQQPGTCMGSKRSQVSSPCSRKKPRMGQQVLDNFFRSHISTDAHSLNSAAQ [W447G] | -1.04
11 | MRKPRAAVGSGHRKQAASQEGRQKHAKNNSQAKPSACDGLARQPEEVVLQASVSSYHLFRDVAEVTAFRGSLLSWYDQEKRDLPWRRRAEDEMDLDRRAYAVWVSEVMLQQTQVATVINYYTGWMQKWPTLQDLASASLEEVNQLWAGLGYYSRGRRLQEGARKVVEELGGHMPRTAETLQQLLPGVGRYTAGAIASIAFGQATGVVDGNVARVLCRVRAIGADPSSTLVSQQLWGLAQQLVDPARPGDFNQAAMELGATVCTPQRPLCSQCPVESLCRARQRVEQEQLLASGSLSGSPDVEECAPNTGQCHLCLPPSEPWDQTLGVVNFPRKASRKPPREESSATCVLEQPGALGAQILLVQRPNSGLLAGLWEFPSVTWEPSEQLQRKALLQELQRWAGPLPATHLRHLGEVVHTFSHIKLTYQVYGLALEGQTPVTTVPPGARSLTQEEFHTAAVSTAMKKVFRVYQGQQPGTCMGSKRSQVSSPCSRKKPRMGQQVLDNFFRSHISTDAHSLNSAAQ [W447S] | -1.01
12 | MRKPRAAVGSGHRKQAASQEGRQKHAKNNSQAKPSACDGLARQPEEVVLQASVSSYHLFRDVAEVTAFRGSLLSWYDQEKRDLPWRRRAEDEMDLDRRAYAVWVSEVMLQQTQVATVINYYTGWMQKWPTLQDLASASLEEVNQLWAGLGYYSRGRRLQEGARKVVEELGGHMPRTAETLQQLLPGVGRYTAGAIASIAFGQATGVVDGNVARVLCRVRAIGADPSSTLVSQQLWGLAQQLVDPARPGDFNQAAMELGATVCTPQRPLCSQCPVESLCRARQRVEQEQLLASGSLSGSPDVEECAPNTGQCHLCLPPSEPWDQTLGVVNFPRKASRKPPREESSATCVLEQPGALGAQILLVQRPNSGLLAGLWEFPSVTWEPSEQLQRKALLQELQRWAGPLPATHLRHLGEVVHTFSHIKLTYQVYGLALEGQTPVTTVPPGARLLTQEEFHTAAVSTAMKKVFRVYQGQQPGTCMGSKRSQVSSPCSRKKPRMGQQVLDNFFRSHISTDAHSLNSAAQ [W447L] | -0.567
